Measured values taken from patent US20050261170A1 (published 2005).
Primed or numbered codes have the meaning given here. NTA′ = nitrilotriacetic acid residue (Asp with its nitrogen carboxymethylated)

Molecular target: T1, onconase bearing a six His tag (Rana pipiens, UniProt P22069 1-104)
T1 construct: also called His-tagged onconase
T1 sequence: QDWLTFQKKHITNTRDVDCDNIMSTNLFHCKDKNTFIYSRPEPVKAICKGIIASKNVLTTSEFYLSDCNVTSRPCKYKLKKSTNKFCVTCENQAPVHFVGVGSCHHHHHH
Experiment: SPR (Biacore C1 chip): IMP 267 immobilised by a disulfide and loaded with NiCl2, flow cell without nickel as control, His-tagged onconase at 0-50 nM as analyte
Experimental: IMP 267 was bound to a Biacore® C1 sensor chip first by dissolving 0.0040 g of IMP 267 in 690 μL of 0.01 M, pH 4.3 formate buffer. The chip was activated for coupling of the peptide via a disulfide linkage using pyridyldithioelthylamine (“PDEA”) as described by Biacore. The Biacore® C1 chip was activated with a 10 μL aliquot of the recommended 1-ethyl-3-(3-dimethylaminoprolyl) carbodiimide (“EDC”)/N-hydroxysuccinimide (“NHS”) mixture at 5 μL/min in flow cells 1 & 2. The recommended PDEA solution, 35 μL (0.0047 g PDEA in 0.1 M, pH 8.5 Borate buffer) was added to the chip at flow cells 1 & 2. The peptide, 35 μL was added to flow cells 1 & 2 and the chip was quenched with an aliquot of cysteine (made from 0.0026 g cys, 0.0268 g NaCl, and 433 μL 0.1 M, pH 4.3 formate buffer) into cells 1 & 2. The chip was activated by adding nickel to only one flow cell using the other flow cell, without nickel, as the control. The activation was done at 40 μL/min using 100 μL of a 500 μM NiCl₂ solution in NTA buffer. A kinetics experiment was performed using the following concentrations of onconase bearing a six His tag (50 nM, 25 nM, 10 nM, 5 nM, 1 nM and 0 nM). […] The affinity of His-tagged onconase is accessed similarly.

- Kd: 1.15 nM
B1: IMP 267 (peptide)
peptide: Ac-CK(NTA′)K(NTA′)K(NTA′)-NH2
modifications: also: Cys thiol coupled to Biacore C1 chip by disulfide (PDEA), loaded with Ni2+
notes: Synthetic tri-NTA peptide; also called peptide that includes nitrilotriacetic acid residues
